Molecular target: SpCas9 (Streptococcus pyogenes Cas9) (Streptococcus pyogenes) (UniProt Q99ZW2)
Assay: cell-based or functional assay

Acx105 (AcrIIA4, wild type; AcrIIA4_lmo)
indel frequency (TIDE), OFF - R1, sample E2A-F2A - Acx-105: 1%
indel frequency (TIDE), OFF - R1, sample EMCV IRESV5: 6.6%
indel frequency (TIDE), OFF - R1, sample EMCV IRESV10: 5%
indel frequency (TIDE), OFF - R1, sample EMCV IRESV15: 15.8%
indel frequency (TIDE), OFF - R1, sample EMCV IRESV21: 12.2%
indel frequency (TIDE), OFF - R1, sample EMCV WT IRES: 2.3%
indel frequency (TIDE), OFF - R1, sample F2A - Acx-105: 0.8%
indel frequency (TIDE), OFF - R1, sample T2A - Acx-105: 1.3%
indel frequency (TIDE), OFF - R1, sample T2A-E2A-F2A - Acx-105: 0.7%
indel frequency (TIDE), ON - R1, sample E2A-F2A - Acx-105: 2.7%
indel frequency (TIDE), ON - R1, sample EMCV IRESV5: 12.5%
indel frequency (TIDE), ON - R1, sample EMCV IRESV10: 26.5%
indel frequency (TIDE), ON - R1, sample EMCV IRESV15: 54.3%
indel frequency (TIDE), ON - R1, sample EMCV IRESV21: 50%
indel frequency (TIDE), ON - R1, sample EMCV WT IRES: 1.2%
indel frequency (TIDE), ON - R1, sample F2A - Acx-105: 1.2%
indel frequency (TIDE), ON - R1, sample T2A - Acx-105: 3.4%
indel frequency (TIDE), ON - R1, sample T2A-E2A-F2A - Acx-105: 4.5%
indel frequency, OFF - R1, Acr start codon ACG: 13.5%
indel frequency, OFF - R1, Acr start codon AUA: 9.8%
indel frequency, OFF - R1, Acr start codon AUG: 1.4%
indel frequency, OFF - R1, Acr start codon CUG: 7.8%
indel frequency, OFF - R1, Acr start codon GUG: 9.5%
indel frequency, OFF - R1, Acr start codon UUG: 11.7%
indel frequency, ON - R1, Acr start codon ACG: 32.5%
indel frequency, ON - R1, Acr start codon AUA: 25.4%
indel frequency, ON - R1, Acr start codon AUG: 5.6%
indel frequency, ON - R1, Acr start codon CUG: 22.3%
indel frequency, ON - R1, Acr start codon GUG: 26.3%
indel frequency, ON - R1, Acr start codon UUG: 27%
inhibition of OFF target editing, Acr start codon CUG: 50%
inhibition of ON target editing, Acr start codon CUG: 36%
reduction of SpCas9 editing, Acr start codon AUG: > 80%

Acx137 (AcrVA1, wild type; AcrVA1_mbo)
indel frequency (TIDE), OFF - R1, sample EMCV WT IRES - Acx137: 7.9%
indel frequency (TIDE), OFF - R1, sample T2A - Acx -137: 11%
indel frequency (TIDE), ON - R1, sample EMCV WT IRES - Acx137: 38.8%
indel frequency (TIDE), ON - R1, sample T2A - Acx -137: 40.3%

From patent publication US20230374502A1
